assay: soluble on expression in E. coli; label from the status in PepcDB or PDB records

Q: For “MRSYFLIFILILLLEIREVWSWKAPYLRDRPRGLGLLQLPTGISDERSGPFLPGLYIAGNKVNQKPQTVPDVHLPGQPADFTGRSAFNPFTHMVSAVYAEDLSDGWGAGMAVNGVNGHGLNVRKNFDSYADVPLNLNDGMYQPFIAAATVGGEYDLSKMREVSGSLDLPIPGVNELFDLNARILVKTFLLHNSAIEFPLTLSDPNERAPYNFRYAVWAPDRHMAYGHVVPNVNPYVIGKDKIMERLMQNRLNPTMVG”, which “soluble on expression in E. coli” value is on record?
A: The value was “not soluble”.

Q: Which “soluble on expression in E. coli” value does the source give for “MSLLLIGNGRLITRDAQNHFFENGCVAIDGQVVKQVGTTEELKQAYPEATFIDAKGGVIMPGFINMHNHIYSTFARGLSLTNYHPKNFMDILVDQWWRIDRALTLEDTYQSGKVAYLDSIRNGVTTVFDHHASYGEITGSLTQLSNAADELGIRTCLCYEVSDRDGEQKMREAVQENAAFIKASSLRNDDMQKAMMGMHAAFTLSDASLELCAANTPDGIGYHIHIAEDLADVHDSLKKYGKPIVNRLFDLGILGKQTMAGHCIHIGPHEMELLRDTDTMVVTNPESNMGNAVGCPPAMRMFNEYGILMGLGTDGYTNDVTESYKVGNVIHKHHLADPNAAWAEIPTMLFDNNPQMANRYFKTKLGVLEPNAAADVIIVDYHGPTPMTKENYNMHILFGMNGGMVTDTVINGEIRMRNREVQGIDEEKVWHDAQTQAQSFWKRVNQEGHHHHHH” here?
A: Its value is “soluble”.

Q: For “MDILLVDGYNMIGAWPQLKDLKANSFEEARDVLIQKMAEYQSYTGNRVIVVFDAHLVKGLEKKQTNHRVEVIFTKENETADERIEKLAQALNNIATQIHVATSDYTEQWAIFGQGALRKSARELLREVETIERRIERRVRKITSEKPAGKIALSEEVLKTFEKWRRGDLDLEHHHHHH”, which “soluble on expression in E. coli” value is on record?
A: The value was “not soluble”.

Q: Which “soluble on expression in E. coli” value does the source give for “MTNEFEILKPGKLLLASANLLDPNFKRTVLLMCEHNEEGSIGFILNKPMEFKVCEAISGFDEIDEPLHMGGPVQVDTVHVLHTRGDVIDGAVEVIPGLFWGGDKEQLSYLINTGVIKASEVRFFLGYAGWSAGQLEAEFEEGSWYTADASSEQVFTDEYERMWSRSVRSKGGEYCYVANSPELPGMNLEHHHHHH” here?
A: The value was “not soluble”.

Q: With “MNIIKGNIASPLGFSADGLHAGFKKKKLDFGWIVSEVPANVAGVFTTNKVIAAPLKLTKNSIEKSGKMQAIVVNSGIANSCTGKQGEKDAFKMQQLAANKLQIQPEYVGVASTGVIGKVMPMSILKNGFSKLVKNGNADDFAKAILTTDTHTKTCVVNEEFGSDTVTMAGVAKGSGMIHPNLATMLAFITCDANISSQTLQQALKDVVEVTFNQITVDGDTSTNDMVLVMSNGCTNNNEIKKDSEDYYKFKQMLLYIMTDLAKSIARDGEGASKLIEVTVKGAKESSAARMIAKSVVGSSLVKTAIFGEDPNWGRIIAAAGYAKTYFDINQVDIFIGRIPVLIRSSPVKYDKEEIQEIMSAEEISIQLDLHQGNCEGQAWGCDLSYDYVKINALYTTLEHHHHHH” as the sequence, how does the “soluble on expression in E. coli” value read?
A: Its value is “not soluble”.

Q: Which “soluble on expression in E. coli” value does the source give for “PQFHLWKRPVVTAHIEGQPVEVLLDTGADDSIVTGIELGPHYTPKIVGGIGGFINTKEYKNVEVEVLGKRIKGTIMTGDTPINIFGRNLLTALGMSLNF” here?
A: Its value is “soluble”.

Q: Which “soluble on expression in E. coli” value does the source give for “SNANNLFVYCEIEEGIVADVSLELLTKGRSLANELNCQLEAVVAGTGLKEIEKQILPYGVDKLHVFDAEGLYPYTSLPHTSILVNLFKEEQPQICLMGATVIGRDLGPRVSSALTSGLTADCTSLEIGDHEDKKEGKVYKNLLYQIRPAFGGNIVATIVNPEHRPQMATVREGVMKKEIVSPAYQGEVIRHDVKKYVADTDYVVKVIERHVEKAKNN” here?
A: The value was “soluble”.

Q: For “MVISLKNRNFLKLLDYTPAEIQHLIDLAIELKAAKKAGCEKQTLIGKNIALIFEKTSTRTRCAFEVAAFDQGAQVTYLGPSGSQIGHKESMKDTARVLGRMYDGIEYRGFGQHIVEELGEYAGVPVWNGLTDEFHPTQILADLMTMLEHAPGKTLPELSFAYLGDARNNMGNSLMVGAAKMGMDIRLIAPKSFWPDAALVAQCREIASVTGARITLTESVEDGVHGVDFLYTDVWVSMGEPKEAWAERVSLMTPYQVNQQVVNATGNPDVKFMHCLPAFHNEHTKVGREIEMAYGLKGLEVTEEVFESAGSIVFDEAENRMHTIKAVMVATLGD”, which “soluble on expression in E. coli” value is on record?
A: The value was “not soluble”.

Q: With “MSSKPKYVQDQEMIPGVYWVGIVDWMVRIFHGYHTDEGSSYNSYFIDDECPTVIDSVKYPFAEEWLSRIAACCPLDKIKYVVMNHAEGDHASSLKDHYHKFTNATFVCTKKCQEHLKILYGMEKATWLIVDDKYTLKIGKRTLKFIPVPLLHWPDSTFTYCPEDKILFSNDGFGQHYATSRRWADECDVSHVMHLFKEYTANILGLFSAQMRKALEVASTVEIKYILSAHGVSWRGDAMGLAIAEYDRWSKGQHCQKKVTVVLDSMYGTTHRMALALLDGARSTGCETVLLEMTSSDITKVALHTYDSGAVAFASPTLNNTMMPSVAAALNYVRGLTLIKGKPAFAFGAFGWSNRAVPDIVAELRDGCKADVYDEKGITFKFNYTEELLEQAYNAGVDLGKRAIAYCEKNAPKQ” as the sequence, how does the “soluble on expression in E. coli” value read?
A: The value was “soluble”.

Q: Which “soluble on expression in E. coli” value does the source give for “MGSDKIHHHHHHMADFNQYTRWEHQMHGVKLPRWDDLPKFDLYMDQVTALINDVLGPLGIDTVTPAMINNYVKHNVIMAPVKKKYQTMQLTDILMISLLKPMFQTDTVRSGIDQITAGDYPKQAYDNFIGQLEDRLHHLGEDQVQPAAQNLNEKLMQVAVDTVVSRLQSEKLLRLIKRPLRKIEKK” here?
A: The value was “not soluble”.

Q: Which “soluble on expression in E. coli” value does the source give for “MSLDRLKQSLLDAPIIEKDGYHYFVHPISDGVPMLEPELLREIVIRIIRKAELDEVDKIVTPAAMGIHISTAVSLMTDIPIVVIRKREYGLPGEVALSQETGYSENEMYINDVHEGDRVLVLDDVLSTGGTLRAITDALEQTGADVADVLAVIKKAGPNELDDTDMDVRTLINVDEGHHHHHH” here?
A: Its value is “soluble”.

Q: For “MGSDKIHHHHHHMSDLTVNDGSYQQLLDRIGECLALGQQRSFEQVNSVLVETYWQIGRYIVEFEQAGKERAEYGSKLLQVLSRDLKAAYGKGFSRSNLQYMRLFYLNYENCQTLSGKLSWSHYTELLAISDDLARSFYEQQCIQDRWSVRELKRQKDSALFERVALSKDRAEILALAKDGQRIESARDVVKDPYVFEFLDLPDRNYRESELENRLIAELEKFLLELGKGFAFIGQQYRITLNNTHFFVDLVFYHRILKCFVLIDLKTRAVSHQDIGQMNMYLNYFRAEENMEDDNEPIGIVLARDKDEILVEYAKGGISNQLFVSRYQLYLPDPEVLKQELKRLLSVNDG”, which “soluble on expression in E. coli” value is on record?
A: The value was “not soluble”.

Q: For “MTMIMRSIIDSLEALFSSFFSSIAPNLYEVLNFHCKKHTGMNFAEATLKNPKLTYEFLVKFFDSEMAVDVLDYLLSNFLKKYSIRAYGILKSFKSGDNKKLIEVAKLYSKVMQNGGGKDRD”, which “soluble on expression in E. coli” value is on record?
A: Its value is “not soluble”.

Q: For “LTCESVRSTDSPHFAMLDALYARAFPCHEQRESEAKRQALSHPRYALEAWFDEGVFVGLSGCWQFAGYGYIEHLAIDDTLRSRGYGKQLLAQILTRAPLTILEIDPLTTAIAHKRLRFYQSMGFHANPWAHHHPSYHQGIADHELLVLSYPQP”, which “soluble on expression in E. coli” value is on record?
A: Its value is “not soluble”.

Q: Which “soluble on expression in E. coli” value does the source give for “MTGRTGGNGSTQAQPERVMLVGVMLDKDGTGSSAARLNGFQTALAEAVELVKAAGGDSVRVETAKRDRPHTALFVGTGKAAELSEAVAADGIDLVVFNHELTPTQERNLEKELKCRVLDRVGLILAIFARRARTQEGRLQVELAQLSHLAGRLIRGYGHLQSQRGGIGMKGPGETKLETDRRLIAHRINALKKQLANLKKQRALRRKSRESGTIKTFALVGYTNVGKSSLFNRLTKSGIYAKDQLFATLDTTARRLYISPECSIILTDTVGFVSDLPHKLISAFSATLEETAQADVLLHVVDAAAPNSGQQIEDVENVLQEIHAGDIPCIKVYNKTDLLPSEEQNTGIWRDAAGKIAAVRISVAENTGIDALREAIAESCAAAPNTDETEMPLEHHHHHH” here?
A: Its value is “soluble”.

Q: With “MGSDKIHHHHHHMRDQQLFLFGGGPPFTPMLCRQFVSCLKQSGPVALLYVPRPGSNWDDYAPIYTDALTANGVTDFFHFPLSARPTSEQLEQLAGSAGIIISGGETERYQQFIVGTPIGTIIQERFQHGVPVAGFSAGALLTPDECRIPVIDQRNGQALVLKGLGLLTDAVISVHYDTWQEETNLSDAFMKTASNFGYGLPERSGIHLKNGQLMQQEGPEVVLLRQKGEYI” as the sequence, how does the “soluble on expression in E. coli” value read?
A: Its value is “not soluble”.

Q: Which “soluble on expression in E. coli” value does the source give for “MGSDKIHHHHHHMAPEDWLRAETQGDIVALVHSHPGGQPYLSDVDRRLQVQSDLPWWLVCAGQVHKFRCVPHLTGRHYKHGVFDCYTLFRDAYHLAGIDMPDFHRDDDWWRHGDNLYLDNLETTGFYRVSAASAQPGDVLICCFGSSVPNHAAIYCGDGELLHHIPEQLSKRERYTDKWQRRTHSIWRHRAWRASAFTGICNDFAAASACR” here?
A: The value was “not soluble”.

Q: Which “soluble on expression in E. coli” value does the source give for “PVNTKRSNGTKRVEFPTTKKSMCIGNSTPNEQETFRAKVDEIWFRLTQKTDGTVMRDFLIEKAAEYFKQPEQPKQNAIEVISAIMAPQEEQTKSKADLYKFLAMFGPYETIMLKIASLLLISNNKGHWLTFDPQAEKNANNQRDSISGWFDQNEPNCLILKTPTGIRKIWNKPLIEATGQYLMDENGEKYDSWDKYFEMKPIETYLTAYPTFAPMHHHHHH” here?
A: Its value is “soluble”.

Q: Which “soluble on expression in E. coli” value does the source give for “MSLKSPPKKDEENVKINNMFKCGFYSFKGNRTYNEDRVIIIEDMNNFLKENIINNIKDMETPSYIYCAIYDGHNGDNAVNIVQKLLHIHMYYYFINGNGLENSLKYSFQEIDNYLCKNIINIKEENHSNYSSGTTACVSVIFKNMLYVANIGDSRCIISKNGRAIVLTVDHRASINKKEQDRILKSGGILDDEGYLGGCLGVCRGFGSFHKKTKEKLKGLICEPDLFHIKLTDDDEFLIICCDGIFDVITSQEAVNTVKNSLIQSRDAKTAAEALCQLAYKKKSLDNLSVLVVIFQNPDKEGHHHHHH” here?
A: The value was “soluble”.

Q: For “MSLGAQADTILNVATAGDQNMVDYVKTWLGPKFEAAHPGVKVRVIGTGPGDAGSNKISEKLTAQQESGAQQWDIDVAVVHQKAGGEQVAKGLLQKYRQDIQTGGMVSSPSATQALGVNVDGYVMPMFLSQTAIAWNSDLVTTPPASYDELVAWTQKHPQAFGYNGIKNGMSGVSFVVGWIYAYGTDAQRLSAGPYDKSVEKGWQQAYEKLKAFNKNVTFTPGNAGTLDMLSRGEIAMGPVWVDMFYSWKDQGKLPPSIKLALLAPGMPGQPMYYVIPAKAANPQLARDFIALATSPEVQAQGIVKQFNWYPGIDAGQVKPKLDAATWQKLFAEISPEALAKYGKSFPIAPYFDDIKEGYESQVANEGHHHHHH”, which “soluble on expression in E. coli” value is on record?
A: Its value is “soluble”.

Q: Which “soluble on expression in E. coli” value does the source give for “GSEKRQHSSQDVHVVLKLWKSGFSLDNGELRSYQDPSNAQFLESIRRGEVPAELRRLAHGGQVNLDMEDHRDEDFVKPKGAFKAFTGEGQKLGSTAPQVLST” here?
A: The value was “soluble”.

Q: With “MAHHHHHHMLQRSFVVRWVPRYIRQVPRVRQKKEQRDAVAMGRSKAPSKRRAECSAVSERDGGVARAAQAKRLEITEEGSTVLESPVSDVSRLLLRKAETLLDSWQKLNMTMTISGSRSDSLMGMKNSSSSQKRDAVAFMAQTEVFAVVKGMIHLSTPHEGSLNRCEEDNKHDSLRQNAFQEYRSTNIISGMVVIPDEATNDAVNYLAQIGRHRVGKVQDKVASLDDSFPISSAIFSLHEVVVFLELYNAMDCEDGELLLRLLEELRRIVFSTEKEIRTENHVLRECEEGVIPRLLLTLSSLGIVEENVLQRIVAINDGSILSRATIARYPESDLIRLLVAFNRFGLHHEPCFHVTAKTLRRNSLRNPLKSFCRNAVNCRVDAAPLGDGEKRSRIPSSMAGLTMNELLEALTAIALSLCREREVVKLLAATIVTAVEDEEYMRCSTKEKAKTREEDLGLLRTLQVHRAAKVCEQMDMPQPSLAHLLHRLSIRYGGLLADGGDVSLSPERVGFYDFITADLVKARCS” as the sequence, how does the “soluble on expression in E. coli” value read?
A: Its value is “not soluble”.
